Results on five molecules are retold here after paper PMC11189301, “Structure of the human outer kinetochore KMN network complex” (Nature Structural & Molecular Biology, 2024).

Broadly, the Kd is the concentration at which binding is half-saturated. Lower therefore signals tighter binding.

Residue numbers refer to the chain shown, from its start.

The target in one test is T1, MIS12C^Dsn1ΔN (Homo sapiens, UniProt Q6P1K2+Q96IY1+Q9H081+Q9H410, DEL6-113).
T1 construct: all proteins, apart from Knl1, were full length; TEV-cleavable double Strep II (DS) tag (C); made in house; host or cells: High-5 insect cells (baculovirus; Nsl1-Dsn1 virus plus Mis12-Pmf1 virus)
Briefly: ITC, peptide titrated into MIS12C with deleted Dsn1^N (residues 6–113). In kind it is binding. To be noted: ITC Kd ratio, MIS12C^Dsn1ΔN vs MIS12C. In general terms: Isothermal titration calorimetry measures the heat released or taken up as one component is titrated into another.

The next test has as its target T2, MIS12C (WT) (Homo sapiens, UniProt Q6P1K2+Q96IY1+Q9H081+Q9H410).
T2 construct: TEV-cleavable double Strep II (DS) tag (C); made in house; host or cells: High-5 insect cells (baculovirus)
Briefly: Isothermal titration calorimetry (ITC), peptide titrated into wild-type MIS12C. In kind it is binding. To be noted: 20 °C, pH 7.5, wild-type MIS12C.

The subject of test [1] is MIS12^Dsn1-W96A R97A R98A. Briefly: Analytical SEC, CENP-C^1–71 binding to MIS12C with WRR linchpin substitutions. Further details: species or system Homo sapiens. Conditions: 4 µM CENP-C^1–71-MBP + 4 µM MIS12^Dsn1-W96A R97A R98A; 20 mM HEPES pH 7.8, 150 mM NaCl, 0.5 mM TCEP; Superdex S200; SDS-PAGE; at least two repeats. Here is the method: (§1) Four micromolar of CENP-C^1–71-MBP was mixed with 4 µM of either wild-type MIS12C or three mutants (MIS12C^ΔN-Dsn1, MIS12^Dsn1-W96A R97A R98A, MIS12C^Dsn1-S100D S109D) in a buffer of 20 mM HEPES (pH 7.8), 150 mM NaCl and 0.5 mM TCEP, and 50 µl of the mixture was loaded onto a Superdex S200 size-exclusion column (Cytiva).
(§2) Coloured by pLDDT score. e AlphaFold2 Multimer prediction of the K. lactis MIS12C coloured by subunit with insert highlighting conservation of the auto-inhibitory Dsn1^N mechanism. Source data

For the next test, the system named is Wild-type MIS12C. Put plainly: Analytical size-exclusion chromatography (SEC), CENP-C^1–71 binding to wild-type MIS12C. Further details: species or system Homo sapiens. To be noted: 4 µM CENP-C^1–71-MBP + 4 µM wild-type MIS12C; 20 mM HEPES pH 7.8, 150 mM NaCl, 0.5 mM TCEP; Superdex S200; SDS-PAGE; at least two repeats. Here is the method: as §1, §2
In general terms: Size exclusion chromatography separates by hydrodynamic size, large species first.

A further test has as its system MIS12C. To be noted: cited from earlier work. From the text: We used isothermal titration calorimetry (ITC) to test this structural model by measuring the affinities of MIS12C for both a peptide modeled on CENP-C and a Dsn1^N auto-inhibitory peptide, including structure-guided interface mutants (Fig. 2g and Extended Data Fig. 4). […] Deletion of Dsn1^N (residues 6–113; MIS12C ...

The target of test [2] is T3, MIS12 complex with phosphomimetic Dsn1 S100D S109D (Homo sapiens, UniProt Q9H081 1-205; Q6P1K2 1-205; Q9H410 1-356; Q96IY1 1-281, S100D | S109D).
T3 construct: Mis12, subunit of human MIS12C; Pmf1, subunit of human MIS12C; Dsn1, subunit of human MIS12C, S100D S109D; Nsl1, subunit of human MIS12C; also called MIS12C^(Dsn1-S100D S109D); MIS12C^(Dsn1 S100D/S109D); source: High-5 insect cells (baculovirus), purified (Strep-Tactin, Resource S, Superdex 200); copies: + + +
T3 sequence (looked up) 1: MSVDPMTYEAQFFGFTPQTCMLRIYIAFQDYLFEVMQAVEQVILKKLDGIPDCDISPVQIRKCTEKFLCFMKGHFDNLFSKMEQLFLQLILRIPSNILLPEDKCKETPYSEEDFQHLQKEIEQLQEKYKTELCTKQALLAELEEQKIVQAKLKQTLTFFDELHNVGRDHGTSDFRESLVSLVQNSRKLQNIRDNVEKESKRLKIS
T3 sequence (looked up) 2: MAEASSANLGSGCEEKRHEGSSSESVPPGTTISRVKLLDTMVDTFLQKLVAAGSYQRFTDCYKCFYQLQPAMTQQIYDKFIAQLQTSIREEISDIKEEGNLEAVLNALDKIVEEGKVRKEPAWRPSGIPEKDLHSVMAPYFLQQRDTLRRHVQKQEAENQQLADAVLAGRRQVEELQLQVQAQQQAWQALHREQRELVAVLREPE
T3 sequence (looked up) 3: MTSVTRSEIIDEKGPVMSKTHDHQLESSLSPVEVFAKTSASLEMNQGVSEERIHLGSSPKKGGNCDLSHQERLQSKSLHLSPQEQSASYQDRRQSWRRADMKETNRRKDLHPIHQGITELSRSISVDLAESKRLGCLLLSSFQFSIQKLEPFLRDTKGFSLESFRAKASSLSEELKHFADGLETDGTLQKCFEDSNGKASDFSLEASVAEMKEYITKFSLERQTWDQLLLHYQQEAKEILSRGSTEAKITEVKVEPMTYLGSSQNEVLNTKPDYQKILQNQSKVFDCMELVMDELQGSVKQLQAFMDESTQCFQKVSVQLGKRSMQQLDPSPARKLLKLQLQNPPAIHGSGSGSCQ
T3 sequence (looked up) 4: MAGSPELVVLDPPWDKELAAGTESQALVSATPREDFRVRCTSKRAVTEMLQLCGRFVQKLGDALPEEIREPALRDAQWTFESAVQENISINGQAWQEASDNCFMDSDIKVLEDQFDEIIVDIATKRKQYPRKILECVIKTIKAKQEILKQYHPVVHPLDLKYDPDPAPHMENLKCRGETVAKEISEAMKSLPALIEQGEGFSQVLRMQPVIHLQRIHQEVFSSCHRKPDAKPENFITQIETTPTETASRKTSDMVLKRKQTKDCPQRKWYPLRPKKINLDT
Briefly: ITC; peptide in the syringe titrated into the MIS12C variant in the cell; 20 °C; 20 mM HEPES pH 7.5, 100 mM NaCl, 1 mM TCEP; single-site binding model; duplicate or triplicate. To be noted: both partners purified.

The target of test [3] is T4, MIS12 complex with Dsn1 residues 6–113 deleted (Homo sapiens, UniProt Q9H081 1-205; Q6P1K2 1-205; Q9H410 1-356; Q96IY1 1-281, 6–113 residues deleted).
T4 construct: Mis12, subunit of human MIS12C; Pmf1, subunit of human MIS12C; Nsl1, subunit of human MIS12C; also called MIS12C^Dsn1ΔN; MIS12C^ΔN-Dsn1; source: High-5 insect cells (baculovirus), purified (Strep-Tactin, Resource S, Superdex 200); copies: + + +
T4 sequence (looked up) 1: T3 sequence (looked up) 1
T4 sequence (looked up) 2: T3 sequence (looked up) 2
T4 sequence (looked up) 3: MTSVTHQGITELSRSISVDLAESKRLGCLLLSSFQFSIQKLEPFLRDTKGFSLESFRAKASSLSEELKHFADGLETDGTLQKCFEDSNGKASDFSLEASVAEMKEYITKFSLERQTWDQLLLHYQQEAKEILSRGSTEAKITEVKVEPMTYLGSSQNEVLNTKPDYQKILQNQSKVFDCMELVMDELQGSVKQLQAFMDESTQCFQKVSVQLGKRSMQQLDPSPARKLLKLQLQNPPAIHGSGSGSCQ
T4 sequence (looked up) 4: T3 sequence (looked up) 4
The test is described as above. To be noted: both partners purified.

Test [4] concerns the target T5, MIS12 complex (Mis12, Pmf1, Dsn1, Nsl1), wild type, full length (Homo sapiens, UniProt Q9H081 1-205; Q6P1K2 1-205; Q9H410 1-356; Q96IY1 1-281).
T5 construct: Mis12, subunit of human MIS12C; Pmf1, subunit of human MIS12C; Dsn1, subunit of human MIS12C; Nsl1, subunit of human MIS12C; The DS tag on Pmf1 is TEV cleavable; a cleavage is not described; also called MIS12C (WT); wild-type MIS12C; source: High-5 insect cells (baculovirus), purified (Strep-Tactin, Resource S, Superdex 200); copies: + + +
T5 sequence (looked up) 1: T3 sequence (looked up) 1
T5 sequence (looked up) 2: T3 sequence (looked up) 2
T5 sequence (looked up) 3: T3 sequence (looked up) 3 with D100S, D109S
T5 sequence (looked up) 4: T3 sequence (looked up) 4
Described as above. Conditions: both partners purified.

The target in a further test is T6, Nsl1 (Homo sapiens, UniProt Q96IY1 1-281).
T6 construct: Nsl1, subunit of human MIS12C; Subunit within the KMN network cryo-EM sample; source: High-5 insect cells, expressed and purified as part of MIS12C
T6 sequence (looked up): T3 sequence (looked up) 4
Put plainly: cryo-EM structure; NDC80C, MIS12C and KNL1C mixed 1:1:1 and run on Superose 6 in 20 mM HEPES pH 8.0, 80 mM NaCl, 1 mM MgCl2, 1 mM TCEP; about 1 mg/ml on UltrAuFoil grids; 3.0 Å (MIS12C heads 3.8 Å). To be noted: both partners purified.

The target of a further test is T7, Dsn1 (Homo sapiens, UniProt Q9H410 1-356).
T7 construct: Dsn1, subunit of human MIS12C; Subunit within the KMN network cryo-EM sample; residues N-terminal to Arg92 are disordered; source: High-5 insect cells, expressed and purified as part of MIS12C
T7 sequence (looked up): T3 sequence (looked up) 3 with D100S, D109S
The description is as above. Conditions: both partners purified.

Another test addresses T8, Spc25 (Homo sapiens, UniProt Q9HBM1 1-224).
T8 construct: Spc25, subunit of human NDC80C; coordinates traced D80–N224; Subunit within the KMN network cryo-EM sample; source: High-5 insect cells, expressed and purified as part of NDC80C
T8 sequence (looked up): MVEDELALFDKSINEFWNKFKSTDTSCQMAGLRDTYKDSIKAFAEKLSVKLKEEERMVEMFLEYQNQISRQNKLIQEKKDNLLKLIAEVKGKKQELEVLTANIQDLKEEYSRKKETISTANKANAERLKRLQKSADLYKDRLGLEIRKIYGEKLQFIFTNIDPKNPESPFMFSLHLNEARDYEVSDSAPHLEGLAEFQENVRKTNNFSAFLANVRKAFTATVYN
The test is described as above. To be noted: both partners purified.

T2 sequence (Q9H410 whole entry, one chain of several): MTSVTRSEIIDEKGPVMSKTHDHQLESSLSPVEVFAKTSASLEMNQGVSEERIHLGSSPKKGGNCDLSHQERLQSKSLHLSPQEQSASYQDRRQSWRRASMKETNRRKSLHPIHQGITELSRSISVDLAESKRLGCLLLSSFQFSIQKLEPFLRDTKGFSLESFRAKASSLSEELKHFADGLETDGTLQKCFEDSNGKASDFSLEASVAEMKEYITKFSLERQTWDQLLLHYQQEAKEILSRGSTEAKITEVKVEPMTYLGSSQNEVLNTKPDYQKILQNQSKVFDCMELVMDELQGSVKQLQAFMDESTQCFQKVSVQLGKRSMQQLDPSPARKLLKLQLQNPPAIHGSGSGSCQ

With “Ac-RRQSWRRASMKETNRRKSLHPIAW-NH2 [Dsn1^92–113]”, the “enhancement of Dsn1^92–113 binding on deleting Dsn1^N, relative to MIS12C (WT)” value at MIS12C^Dsn1ΔN came out at 44 fold. For the same molecule, the “affinity of Dsn1^92–113 for MIS12C, in words” value on MIS12C (WT) is “high-micromolar affinity”.

Consider “CENP-C^1–71: CENP-C residues 1–71 fused to a C-terminal maltose-binding protein (MBP) tag, expressed in E. coli”, for which the “CENP-C^1–71 binding by SEC, in words” value in [1] is reported as “binding of almost all CENP-C”; in the test on Wild-type MIS12C it was “only partially bound”.

Consider “residues 1–21 of CENP-C: residues 1–21 of CENP-C, prior data of ref 10”, for which, in the test on MIS12C, the “increase in affinity of MIS12C for residues 1–21 of CENP-C on deleting a ten-residue segment of Dsn1 incorporating Ser100 and Ser109” value is reported as 90 fold.

B1: CENP-C^2–22 peptide (peptide)
peptide: Ac-AASGLDHLKNGYRRRFCRPSRA-NH2
notes: CENP-C, human, named residues 2-22; also called N-terminal region of CENP-C (residues 2–22); source: synthetic peptide (Biosynth)
As for B1, the Kd in [2] is 20.4 nM; in [3], 10.2 nM; in test [4], 485 nM.

B2: Spc24 (natural protein, Homo sapiens, UniProt Q8NBT2 1-197, looked up)
chain: MAAFRDIEEVSQGLLSLLGANRAEAQQRRLLGRHEQVVERLLETQDGAEKQLREILTMEKEVAQSLLNAKEQVHQGGVELQQLEAGLQEAGEEDTRLKASLLQLTRELEELKEIEADLERQEKEVDEDTTVTIPSAVYVAQLYHQVSKIEWDYECEPGMVKGIHHGPSVAQPIHLDSTQLSRKFISDYLWSLVDTEW
notes: Spc24, subunit of human NDC80C; coordinates traced G86–W197; Subunit within the KMN network cryo-EM sample; source: High-5 insect cells, expressed and purified as part of NDC80C
Consider B2, for which the binding result in the test with Nsl1, with Dsn1 and with Spc25 was “binds” each time.
